This series has as its target T1, AIM2-GST (rhAIM2) (human, UniProt O14862 1-343).
T1 sequence: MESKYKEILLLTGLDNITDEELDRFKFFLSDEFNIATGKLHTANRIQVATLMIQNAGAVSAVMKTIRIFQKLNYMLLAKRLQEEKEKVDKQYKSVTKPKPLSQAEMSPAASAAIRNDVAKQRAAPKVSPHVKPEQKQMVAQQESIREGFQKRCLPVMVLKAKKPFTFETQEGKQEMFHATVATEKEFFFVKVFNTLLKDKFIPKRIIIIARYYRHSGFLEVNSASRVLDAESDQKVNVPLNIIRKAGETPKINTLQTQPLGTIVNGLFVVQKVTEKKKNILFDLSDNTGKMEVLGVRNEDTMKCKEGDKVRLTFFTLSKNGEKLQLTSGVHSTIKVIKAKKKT
As to the kind of experiment: EMSA; no inhibitor. The conditions noted are these: protein: commercial; tags: GST; label: none (SYBR Safe stain after electrophoresis); blunt. (In EMSA bound probe runs differently from free probe, usually more slowly.)

B1: VACV72 dsDNA (dsDNA)
DNA 1: ATCCATCAGAAAGAGGTTTAATATTTTTGTGAGACCATCGAAGAGAGAAAGAGATAAAACTTTTTTACGACT
DNA 2: AGTCGTAAAAAAGTTTTATCTCTTTCTCTCTTCGATGGTCTCACAAAAATATTAAACCTCTTTCTGATGGAT
As to B1, the binding result is given as “binds”.

For the origin of these results see paper PMC10193008, “Discovery of an inhibitor of DNA-driven inflammation that preferentially targets the AIM2 inflammasome”.
